Consider 1 molecule from publication PMC5070868.

Common to all, as to assay: flow cytometry on cells; PBMCs of SLA class I haplotype-defined Microminipigs stained with X2F6 followed by anti-mouse IgG-FITC; lymphoid gate; also after TSST-1 or IFN-γ stimulation
In general terms: A flow cytometer gives signals particle by particle.

In assay [1] the target is classical class I SLA on PBMCs of Hp-10.0 homozygous Microminipigs.
The target in assay [2] is classical class I SLA on PBMCs of Hp-17.0 homozygous Microminipigs.
Assay [3] addresses classical class I SLA on PBMCs of Hp-35.0 homozygous Microminipigs.

B1: X2F6 monoclonal antibody (antibody, V domains shown)
VH: QVQLQQSGAELVKPGASVKLSCKASGYTFTSYDINWVRQRPEQGLEWIGWIYPGDGSTKYNEKFKGKATLTTDKSSSTAYMQLSRLTSEDSAVYFCASPYYYGSSPFAYWGQGTLVTVSA
VL: DIQMTQSPASLSASVGETVTITCRASENIYSYLAWYQQKQGKSPQLLVYNAKTLAEGVPSRFSGSGSGTQFSLKINSLQPEDFGSYYCQHHYGTPRTFGGGTKLEIK
On to B1, for which the MFI in assay [1] came out at 1900; in assay [2], 122; in assay [3], 767.
